Holding throughout (assay): EMSA
Common to all, as to conditions: EMSA: 10 mM Tris-HCl, 10 mM NaCl, 40 mM KCl, 1 mM MgCl2, 4 mM EDTA, 1 mM DTT, 0.5 mg/ml BSA, 5% glycerol, 2 pmol DNA in 15 ul, room temperature 15 min (pH not …)
(In EMSA bound probe runs differently from free probe, usually more slowly.)

Series [1] relates to IntI1 (IntI1Y312F), MBP fusion.
The test system of series [2] is IntI1A.
In series [3] the test system is IntI1deltaC.

In turn, “CATTGCGCATTGCGTAGATCTTTTGTTATAACTTTCGCCTAAGGGGCTGACAACGCACTACCACTAAACTCAAACACAACAACAGCAACCACCGCGGCTCAATGGGACTGGAAACGCCACGCGTTGACAGTCCCTCTTGAGGCGGCCGTTATAACTTTCCATGGCTATATTTCAGCATCATCACATCATCATCATCATCATCACAGGGTAGATCATCATCATCAACACGGGACGACAGCAAATGGCACCCTTCTATAAGCTTTTTGTTATAACTTTCGCCTAAGGGGCTGACAACGCACTACCACTAAACTCAAACACAACAACAGCAACCACCGCGGCTCAATGGGACTGGAAACGCCACGCGTTGACAGTCCCTCTTGAGGCGGCCGTTATAACTTTCTCGAGGGTATAGCATTCTAG / CCCTGTGATGATGATGATGATGATGTGATGATGCTGAAATATAGCCATGGACGCAGATCTACGCAATGCGCAATG / CTAGAATGCTATACCCTCGAGCGCAAGCTTATAGAAGGGTGCCATTTGCTGTCGTCCCGTGTTGATGATGATGATC [double-attCVCRinv + staples]” registered a K half in series [1] of 135 nM.
“CATTGCGCATTGCGTAGATCTTTTGAGTAACCGTTTTGAGTCGAACCCAACGATCCGTTGGTGTTCGAGCTCATCTGTGTTACTCTTTCCATGGCTATATTTCAGCATCATCACATCATCATCATCATCATCACAGGGTAGATCATCATCATCAACACGGGACGACAGCAAATGGCACCCTTCTATAAGCTTTTTGAGTAACCGTTTTGAGTCGAACCCAACGATCCGTTGGTGTTCGAGCTCATCTGTGTTACTCTTTCTCGAGGGTATAGCATTCTAG / CCCTGTGATGATGATGATGATGATGTGATGATGCTGAAATATAGCCATGGACGCAGATCTACGCAATGCGCAATG / CTAGAATGCTATACCCTCGAGCGCAAGCTTATAGAAGGGTGCCATTTGCTGTCGTCCCGTGTTGATGATGATGATC [double-attCL2 + staples]” registered a K half in series [1] of 357 nM.
“CATTGCGCATTGCGTAGATCTTTTGTTATAACGCCCGCCTAAGGGGCTGACAACGCACTACCACTAAACTCAAACACAACAACAGCAACCACCGCGGCTCAATGGGACTGGAAACGCCACGCGTTGACAGTCCCTCTTGAGGCGTTTGTTATAACTTTCCATGGCTATATTTCAGCATCATCACATCATCATCATCATCATCACAGGGTAGATCATCATCATCAACACGGGACGACAGCAAATGGCACCCTTCTATAAGCTTTTTGTTATAACGCCCGCCTAAGGGGCTGACAACGCACTACCACTAAACTCAAACACAACAACAGCAACCACCGCGGCTCAATGGGACTGGAAACGCCACGCGTTGACAGTCCCTCTTGAGGCGTTTGTTATAACTTTCTCGAGGGTATAGCATTCTAG / CCCTGTGATGATGATGATGATGATGTGATGATGCTGAAATATAGCCATGGACGCAGATCTACGCAATGCGCAATG / CTAGAATGCTATACCCTCGAGCGCAAGCTTATAGAAGGGTGCCATTTGCTGTCGTCCCGTGTTGATGATGATGATC [double-attCVCR2/1 + staples]” had a K half in series [1] of 353 nM.
For the sequence “CATTGCGCATTGCGTAGATCTTTTATGTCTAACGCTTGAATTAAGCCGCGCCGCGAAGCGGCGTCGGCTTGAATGAATTGTTAGACATTTTCCATGGCTATATTTCAGCATCATCACATCATCATCATCATCATCACAGGGTAGATCATCATCATCAACACGGGACGACAGCAAATGGCACCCTTCTATAAGCTTTTTATGTCTAACGCTTGAATTAAGCCGCGCCGCGAAGCGGCGTCGGCTTGAATGAATTGTTAGACATTTTCTCGAGGGTATAGCATTCTAG / CCCTGTGATGATGATGATGATGATGTGATGATGCTGAAATATAGCCATGGACGCAGATCTACGCAATGCGCAATG / CTAGAATGCTATACCCTCGAGCGCAAGCTTATAGAAGGGTGCCATTTGCTGTCGTCCCGTGTTGATGATGATGATC [double-attCaadA7bs + staples]”, the K half was found to be 153 nM in series [1], 100 nM in series [2] and 180 nM in series [3].
Turning to “CATTGCGCATTGCGTAGATCTTTTATGTCTAACAATTCATTCAAGCCGACGCCGCTTCGCGGCGCGGCTTAATTCAAGCGTTAGACATTTTCCATGGCTATATTTCAGCATCATCACATCATCATCATCATCATCACAGGGTAGATCATCATCATCAACACGGGACGACAGCAAATGGCACCCTTCTATAAGCTTTTTATGTCTAACAATTCATTCAAGCCGACGCCGCTTCGCGGCGCGGCTTAATTCAAGCGTTAGACATTTTCTCGAGGGTATAGCATTCTAG / CCCTGTGATGATGATGATGATGATGTGATGATGCTGAAATATAGCCATGGACGCAGATCTACGCAATGCGCAATG / CTAGAATGCTATACCCTCGAGCGCAAGCTTATAGAAGGGTGCCATTTGCTGTCGTCCCGTGTTGATGATGATGATC [double-attCaadA7ts + staples]”, in series [1], the binding signal came to 7 % bound.

These data come from paper PMC11641012.
